Results taken from US20120238493A1 (INDIANA UNIVERSITY RESEARCH AND TECHNOLOGY, published 2012).
*1 amine or outer side, *2 acyl side, *3 side chain or, on linkers, in order; H or OH if unused. Where no end group is shown, it is not given here. Side-chain parts run from the residue outwards. [ ]: non-standard residue; d: D form. The star is where a group is joined. γGlu = O=C(O)[C@H](CCC(=O)[*:2])N[*:1]; Palmitoyl = CCCCCCCCCCCCCCCC(=O)*; Myristoyl = CCCCCCCCCCCCCC(=O)*; 40K‑ME = not defined here; 40K‑TE = not defined here; Ac3c = NC1(C(=O)O)CC1; Aib = CC(C)(N)C(=O)O

B1: peptide of SEQ ID NO: 58 (peptide)
peptide: Y[Aib]QGTFTSDYSIYLDKEAA[Aib]KFVNWLLAGGPSSGAPPPSC-NH2
modifications: lactam (positions not given here); also: lactam between underlined residues, underlining not shown
B2: peptide of SEQ ID NO: 54 (peptide)
peptide: Y[Aib]QGTFTSDYSIYLDKQAA[Aib]EFV[Aib]WLLAGGPSSGAPPPSC-NH2
modifications: N-terminus assumed
SMILES: CC[C@H](C)[C@H](NC(=O)[C@H](CO)NC(=O)[C@H](Cc1ccc(O)cc1)NC(=O)[C@H](CC(=O)O)NC(=O)[C@H](CO)NC(=O)[C@@H](NC(=O)[C@H](Cc1ccccc1)NC(=O)[C@@H](NC(=O)CNC(=O)[C@H](CCC(N)=O)NC(=O)C(C)(C)NC(=O)[C@@H](N)Cc1ccc(O)cc1)[C@@H](C)O)[C@@H](C)O)C(=O)N[C@@H](Cc1ccc(O)cc1)C(=O)N[C@@H](CC(C)C)C(=O)N[C@@H](CC(=O)O)C(=O)N[C@@H](CCCCN)C(=O)N[C@@H](CCC(N)=O)C(=O)N[C@@H](C)C(=O)N[C@@H](C)C(=O)NC(C)(C)C(=O)N[C@@H](CCC(=O)O)C(=O)N[C@@H](Cc1ccccc1)C(=O)N[C@H](C(=O)NC(C)(C)C(=O)N[C@@H](Cc1c[nH]c2ccccc12)C(=O)N[C@@H](CC(C)C)C(=O)N[C@@H](CC(C)C)C(=O)N[C@@H](C)C(=O)NCC(=O)NCC(=O)N1CCC[C@H]1C(=O)N[C@@H](CO)C(=O)N[C@@H](CO)C(=O)NCC(=O)N[C@@H](C)C(=O)N1CCC[C@H]1C(=O)N1CCC[C@H]1C(=O)N1CCC[C@H]1C(=O)N[C@@H](CO)C(=O)N[C@@H](CS)C(N)=O)C(C)C
B3: peptide of SEQ ID NO: 59 (peptide)
peptide: Y[Aib]QGTFTSDYSIYLDKEAA[Aib]KFVNWLLAGGPSSGAPPPSC(40K‑TE)-NH2
modifications: lactam (positions not given here); reading uncertain; also: lactam between underlined residues, underlining not shown
B4: peptide of SEQ ID NO: 56 (peptide)
peptide: Y[Aib]QGTFTSDYSIYLDEQAAKEFV[Aib]WLLAGGPSSGAPPPSC-NH2
modifications: lactam (positions not given here); also: lactam between underlined residues, underlining not shown
B5: peptide of SEQ ID NO: 52 (peptide)
peptide: H[Aib]QGTFTSDYSIYLDKQAA[Aib]EFVNWLLAGGPSSGAPPPSC-NH2
modifications: N-terminus assumed
SMILES: CC[C@H](C)[C@H](NC(=O)[C@H](CO)NC(=O)[C@H](Cc1ccc(O)cc1)NC(=O)[C@H](CC(=O)O)NC(=O)[C@H](CO)NC(=O)[C@@H](NC(=O)[C@H](Cc1ccccc1)NC(=O)[C@@H](NC(=O)CNC(=O)[C@H](CCC(N)=O)NC(=O)C(C)(C)NC(=O)[C@@H](N)Cc1c[nH]cn1)[C@@H](C)O)[C@@H](C)O)C(=O)N[C@@H](Cc1ccc(O)cc1)C(=O)N[C@@H](CC(C)C)C(=O)N[C@@H](CC(=O)O)C(=O)N[C@@H](CCCCN)C(=O)N[C@@H](CCC(N)=O)C(=O)N[C@@H](C)C(=O)N[C@@H](C)C(=O)NC(C)(C)C(=O)N[C@@H](CCC(=O)O)C(=O)N[C@@H](Cc1ccccc1)C(=O)N[C@H](C(=O)N[C@@H](CC(N)=O)C(=O)N[C@@H](Cc1c[nH]c2ccccc12)C(=O)N[C@@H](CC(C)C)C(=O)N[C@@H](CC(C)C)C(=O)N[C@@H](C)C(=O)NCC(=O)NCC(=O)N1CCC[C@H]1C(=O)N[C@@H](CO)C(=O)N[C@@H](CO)C(=O)NCC(=O)N[C@@H](C)C(=O)N1CCC[C@H]1C(=O)N1CCC[C@H]1C(=O)N1CCC[C@H]1C(=O)N[C@@H](CO)C(=O)N[C@@H](CS)C(N)=O)C(C)C
B6: peptide of SEQ ID NO: 79 (peptide)
peptide: H[Aib]QGTFTSDK([γGlu-Palmitoyl])SKYLDERRA[Aib]EFVQWLLDGGPSSGAPPPS-NH2
modifications: N-terminus assumed
SMILES: CCCCCCCCCCCCCCCC(=O)N[C@@H](CCC(=O)NCCCC[C@H](NC(=O)[C@H](CC(=O)O)NC(=O)[C@H](CO)NC(=O)[C@@H](NC(=O)[C@H](Cc1ccccc1)NC(=O)[C@@H](NC(=O)CNC(=O)[C@H](CCC(N)=O)NC(=O)C(C)(C)NC(=O)[C@@H](N)Cc1c[nH]cn1)[C@@H](C)O)[C@@H](C)O)C(=O)N[C@@H](CO)C(=O)N[C@@H](CCCCN)C(=O)N[C@@H](Cc1ccc(O)cc1)C(=O)N[C@@H](CC(C)C)C(=O)N[C@@H](CC(=O)O)C(=O)N[C@@H](CCC(=O)O)C(=O)N[C@@H](CCCNC(=N)N)C(=O)N[C@@H](CCCNC(=N)N)C(=O)N[C@@H](C)C(=O)NC(C)(C)C(=O)N[C@@H](CCC(=O)O)C(=O)N[C@@H](Cc1ccccc1)C(=O)N[C@H](C(=O)N[C@@H](CCC(N)=O)C(=O)N[C@@H](Cc1c[nH]c2ccccc12)C(=O)N[C@@H](CC(C)C)C(=O)N[C@@H](CC(C)C)C(=O)N[C@@H](CC(=O)O)C(=O)NCC(=O)NCC(=O)N1CCC[C@H]1C(=O)N[C@@H](CO)C(=O)N[C@@H](CO)C(=O)NCC(=O)N[C@@H](C)C(=O)N1CCC[C@H]1C(=O)N1CCC[C@H]1C(=O)N1CCC[C@H]1C(=O)N[C@@H](CO)C(N)=O)C(C)C)C(=O)O

Experiments:
Assay in all cases: cell-based or functional assay
[1] = target: glucagon receptor (UniProt P47871 26-477, limits assumed)
[2] = target: GLP-1 receptor (UniProt P43220 24-463, limits assumed)
[3] = target: T1, GIP receptor (UniProt P48546 22-466, limits assumed)
T1 sequence (looked up): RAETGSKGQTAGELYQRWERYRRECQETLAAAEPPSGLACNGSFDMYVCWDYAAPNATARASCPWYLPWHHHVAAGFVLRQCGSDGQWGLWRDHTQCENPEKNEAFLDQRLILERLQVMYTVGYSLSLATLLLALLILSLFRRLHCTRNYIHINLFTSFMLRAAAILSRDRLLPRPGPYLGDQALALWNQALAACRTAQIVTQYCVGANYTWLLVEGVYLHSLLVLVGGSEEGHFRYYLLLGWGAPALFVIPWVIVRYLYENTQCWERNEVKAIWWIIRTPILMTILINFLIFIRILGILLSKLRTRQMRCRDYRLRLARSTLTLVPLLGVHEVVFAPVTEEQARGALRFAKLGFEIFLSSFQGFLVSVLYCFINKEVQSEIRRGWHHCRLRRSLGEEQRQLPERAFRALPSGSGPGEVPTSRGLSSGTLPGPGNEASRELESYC

Sequence of GLP-1 receptor (P43220 24-463 limits assumed): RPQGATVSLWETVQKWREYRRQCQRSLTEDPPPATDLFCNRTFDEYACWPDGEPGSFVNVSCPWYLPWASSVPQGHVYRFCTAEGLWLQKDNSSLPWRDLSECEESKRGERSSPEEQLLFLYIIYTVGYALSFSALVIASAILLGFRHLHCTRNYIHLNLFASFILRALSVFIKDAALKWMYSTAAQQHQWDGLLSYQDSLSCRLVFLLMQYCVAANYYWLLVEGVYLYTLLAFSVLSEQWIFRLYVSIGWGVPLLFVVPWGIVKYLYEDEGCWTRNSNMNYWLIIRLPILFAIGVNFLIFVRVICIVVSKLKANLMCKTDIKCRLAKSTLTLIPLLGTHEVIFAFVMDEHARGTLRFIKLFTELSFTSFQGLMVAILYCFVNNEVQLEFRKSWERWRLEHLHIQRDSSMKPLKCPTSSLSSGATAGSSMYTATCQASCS
Sequence of glucagon receptor (P47871 26-477 limits assumed): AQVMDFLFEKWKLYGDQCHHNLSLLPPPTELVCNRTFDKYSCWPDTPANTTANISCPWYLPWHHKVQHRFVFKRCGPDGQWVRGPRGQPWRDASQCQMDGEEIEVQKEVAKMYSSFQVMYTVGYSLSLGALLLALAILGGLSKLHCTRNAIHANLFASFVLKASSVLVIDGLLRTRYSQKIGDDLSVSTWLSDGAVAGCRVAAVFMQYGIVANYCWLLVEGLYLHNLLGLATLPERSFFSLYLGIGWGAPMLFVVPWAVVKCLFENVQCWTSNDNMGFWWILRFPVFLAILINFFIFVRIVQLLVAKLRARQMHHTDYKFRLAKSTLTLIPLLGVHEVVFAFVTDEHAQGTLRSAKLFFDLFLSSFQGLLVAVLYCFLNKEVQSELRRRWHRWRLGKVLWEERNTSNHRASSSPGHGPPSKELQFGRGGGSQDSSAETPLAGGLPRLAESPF

Binder	EC50 (cAMP reporter) [1] [nM]	EC50 (cAMP reporter) [2] [nM]	EC50 (cAMP reporter) [3] [nM]
Y[Aib]QGTFTSDK([γGlu-Myristoyl])SIYLDKQAA[Aib]EFVNWLLAGGPSSGAPPPSC(40K‑ME)-NH2 (reading uncertain) [peptide of SEQ ID NO: 68]	50.1	0.612	0.862
Y[Aib]EGTFISDYSIYLDKQAA[Aib]EFVNWLLAGGPSSGAPPPSC(40K‑TE)-NH2 (not fully specified; reading uncertain) [peptide of SEQ ID NO: 72]	1.68	2.69	0.035
B1	0.063	0.014	0.005
Y[Aib]QGTFTSDYSIYLDKQAA[Aib]EFVC(40K‑ME)WLLAGGPSSGAPPPSK(Palmitoyl)-NH2 (not fully specified; reading uncertain) [peptide of SEQ ID NO: 70]	0.018	0.007	0.014
YXEGTFTSDYSIYLDKQAAXEFVNWLLAGGPSSGAPPPSC (not fully specified; aib at 2; acpc at 20; C-terminal C(40K-TE); NH2) [peptide of SEQ ID NO: 73]	~10	0.91	1.56
H[Aib]QGTFTSDYSIYLDKQAA[Aib]EFVNWLLAGGPSSGAPPPSC(40K‑TE)-NH2 (reading uncertain) [peptide of SEQ ID NO: 53]	3.51	0.027	0.232
B2	0.566	0.091	0.467
B3	0.432	0.063	0.122
Y[Aib]QGTFISDYSIYLDKQAA[Ac3c]EFVNWLLAGGPSSGAPPPSC(40K‑TE)-NH2 (not fully specified; reading uncertain) [peptide of SEQ ID NO: 75]	3.12	17.7	2.44
B4	1.27	0.096	1.98
B5	0.2	0.005	0.006
Y[Aib]QGTFTSDK([γGlu-Palmitoyl])SIYLDKQAA[Aib]EFVNWLLAGGPSSGAPPPSC(40K‑ME)-NH2 (reading uncertain) [peptide of SEQ ID NO: 69]	0.055	0.02	0.015
H[Aib]QGTFISDYSIYLDKQAA[Ac3c]EFVNWLLAGGPSSGAPPPSC(40K‑TE)-NH2 (not fully specified; reading uncertain) [peptide of SEQ ID NO: 74]	2.52	6.42	2.54
B6	0.004	0.006	0.003
